This note sets out measurements from patent US20250134956A1 (published 2025).

For assay [1], the target named is T1, Kita-kyushu lung cancer antigen 1 (CT83, KKLC1, CXorf61) peptide on HLA-A*02 (human).
T1 peptide: RILVNLSMV
In words: binding, other.

Assay [2] addresses T2, Kita-kyushu lung cancer antigen 1 (CT83, KKLC1, CXorf61) peptide on HLA-A*02 (human).
T2 peptide: KLVELEHTLL
In words: binding, other.

B1: TCR of SEQ ID NOs 16 and 17 (TCR, V domains shown)
Valpha: KQEVTQIPAALSVPEGENLVLNCSFTDSAIYNLQWFRQDPGKGLTSLLLIQSSQREQTSGRLNASLDKSSGRSTLYIAASQPGDSATYLCAVSGNTPLVFGKGTRLSVIA
Vbeta: NAGVTQTPKFRVLKTGQSMTLLCAQDMNHEYMYWYRQDPGMGLRLIHYSVGEGTTAKGEVPDGYNVSRLKKQNFLLGLESAAPSQTSVYFCASSYVGNTEAFFGQGTRLTVV
On to B1, for which the binding result in assay [1] was “recognises”.

B2: TCR of SEQ ID NOs 18 and 19 (TCR, V domains shown)
Valpha: KQEVTQIPAALSVPEGENLVLNCSFTDSAIYNLQWFRQDPGKGLTSLLLIQSSQREQTSGRLNASLDKSSGRSTLYIAASQPGDSATYLCAPSGNTPLVFGKGTRLSVIA
Vbeta: NAGVTQTPKFRVLKTGQSMTLLCAQDMNHEYMYWYRQDPGMGLRLIHYSVGEGTTAKGEVPDGYNVSRLKKQNFLLGLESAAPSQTSVYFCASSFLGNTEAFFGQGTRLTVV
As to B2, in assay [1], the binding result is given as “recognises”.

B3: TCR of SEQ ID NOs 12 and 13 (TCR, V domains shown)
Valpha: KQEVTQIPAALSVPEGENLVLNCSFTDSAIYNLQWFRQDPGKGLTSLLLIQSSQREQTSGRLNASLDKSSGRSTLYIAASQPGDSATYLCAVMEDSGYALNFGKGTSLLVTP
Vbeta: NAGVTQTPKFQVLKTGQSMTLQCAQDMNHEYMSWYRQDPGMGLRLIHYSVGAGITDKGEVPNGYNVSRLNKREFSLRLESAAPSQTSVYFCASSRTGYYGYTFGSGTRLTVV
As for B3, in assay [2], the binding result is reported as “recognises”.

B4: TCR of SEQ ID NOs 10 and 11 (TCR, V domains shown)
Valpha: KQEVTQIPAALSVPEGENLVLNCSFTDSAIYNLQWFRQDPGKGLTSLLLIQSSQREQTSGRLNASLDKSSGRSTLYIAASQPGDSATYLCAVTTQGGSEKLVFGKGTKLTVNP
Vbeta: NAGVTQTPKFQVLKTGQSMTLQCAQDMNHEYMSWYRQDPGMGLRLIHYSVGAGITDQGEVPNGYNVSRSTTEDFPLRLLSAAPSQTSVYFCASSYSDRGYSPLHFGNGTRLTVT
Turning to B4, in assay [2], the binding result is “recognises”.

B5: TCR of SEQ ID NOs 14 and 15 (TCR, V domains shown)
Valpha: KQEVTQIPAALSVPEGENLVLNCSFTDSAIYNLQWFRQDPGKGLTSLLLIQSSQREQTSGRLNASLDKSSGRSTLYIAASQPGDSATYLCAVGGEETSGSRLTFGEGTQLTVNP
Vbeta: NAGVTQTPKFQVLKTGQSMTLQCAQDMNHEYMSWYRQDPGMGLRLIHYSVGAGITDQGEVPNGYNVSRSTTEDFPLRLLSAAPSQTSVYFCASSYSDRGYSPLHFGNGTRLTVT
B5: the binding result in assay [2] is recorded as “recognises”.

B6: TCR of SEQ ID NOs 20 and 21 (TCR, V domains shown)
Valpha: KQEVTQIPAALSVPEGENLVLNCSFTDSAIYNLQWFRQDPGKGLTSLLLIQSSQREQTSGRLNASLDKSSGRSTLYIAASQPGDSATYLCAVNELGRLYFGRGTQLTVWP
Vbeta: NAGVTQTPKFQVLKTGQSMTLQCAQDMNHEYMSWYRQDPGMGLRLIHYSVGAGITDQGEVPNGYNVSRSTTEDFPLRLLSAAPSQTSVYFCASSYSGGYTFGSGTRLTVV
Consider B6, for which the binding result in assay [1] is “recognises”.
